Measurements as given in patent US20220339194A1 (A2 BIOTHERAPEUTICS, published 2022).

Target: erb-b2 receptor tyrosine kinase 2 (HER2) on target cells (Homo sapiens (Human), UniProt P04626 23-1255)
Assay: cell-based or functional assay

EC50 (molecules/cell), Jurkat NFAT luciferase activation, mRNA titration in HeLa; construct CT1094 (CAR only): 6500 molecules/cell
EC50 (molecules/cell), Jurkat NFAT luciferase activation, mRNA titration in HeLa; construct CT1113 (CT1094 + Murine blocker): 4900 molecules/cell
EC50 (molecules/cell), Jurkat NFAT luciferase activation, mRNA titration in HeLa; construct CT1121 (CT1094 + Human-1 blocker): 4600 molecules/cell
EC50 (molecules/cell), Jurkat NFAT luciferase activation, mRNA titration in HeLa; construct CT1187 (CT1094 + Human-2 blocker): 4500 molecules/cell
B1: HER2 CAR CT1094 (receptor)
chain: QVQLQQSGPELKKPGETVKISCKASGYPFTNYGMNWVKQAPGQGLKWMGWINTSTGESTFADDFKGRFDFSLETSANTAYLQINNLKSEDSATYFCARWEVYHGYVPYWGQGTTVTVSSGGGGSGGGGSGGGGSDIQLTQSHKFLSTSVGDRVSITCKASQDVYNAVAWYQQKPGQSPKLLIYSASSRYTGVPSRFTGSGSGPDFTFTISSVQAEDLAVYFCQQHFRTPFTFGSGTKLEIKAEPKSPDKTHTCPPCPKDPKFWVLVVVGGVLACYSLLVTVAFIIFWVRSKRSRLLHSDYMNMTPRRPGPTRKHYQPYAPPRDFAAYRSRVKFSRSADAPAYKQGQNQLYNELNLGRREEYDVLDKRRGRDPEMGGKPRRKNPQEGLYNELQKDKMAEAYSEIGMKGERRRGKGHDGLYQGLSTATKDTYDALHMQALPPR
